The source of these data is patent US20200181223A1.

The target in assay [1] is human insulin receptor isoform B (IR-B) (human) (UniProt P06213).
In assay [2] the target is Ala(B25)-Insulin (human).
Assay [3] deals with Glu(A14)Des(B30)-Insulin (human).
Assay [4] concerns the target Glu(A14)Ile(B25)Des(B30)-Insulin (human).
In assay [5] the target is Glu(A14)Val(B16)Des(B30)-Insulin (human).
In assay [6] the target is Glu(A14)Val(B16)Val(B25)Des(B30)-Insulin (human).
The target in assay [7] is Glu(A14)Val(B25)Des(B30)-Insulin (human).
The target of assay [8] is Human Insulin (wild-type) (human).
Assay [9] concerns the target Val(B25)Des(B30)-Insulin (human).
Assay [10] deals with human insulin receptor isoform B (IR-B) (human) (UniProt P06213). The assay is described as follows: SPA competition with [125I]-labelled human insulin, plasma membranes of CHO cells overexpressing the IR; 0 means below the detection limit.
The target is the same in assay [11]. Description: SPA competition with [125I]-labelled human insulin, plasma membranes of CHO cells overexpressing the IR.
Assay [12] shares this target. The assay is described as follows: SPA competition with [125I]-labelled human insulin, plasma membranes of CHO cells overexpressing the IR; category B (<20%) as defined in paragraph 522.
Assay [13] concerns the target Glu(A14)Gly(A21)Trp(B25)Des(B30)-Insulin (human).
Assay [14] addresses Glu(A14)His(B16)Des(B30)-Insulin (human).
Assay [15] has as its target Gly(A21)Trp(B16)His(B25)Des(B30)-Insulin (human).
The target of assay [16] is Leu(B25)Des(B30)-Insulin (human).
Sequence of Leu(B25)Des(B30)-Insulin (human) (chain, as listed by the source, chain 1 of 2): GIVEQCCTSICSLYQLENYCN
Sequence of Leu(B25)Des(B30)-Insulin (human) (chain, as listed by the source, chain 2 of 2): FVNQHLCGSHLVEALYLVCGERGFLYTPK

A value given as a limit tells only on which side of the number the result lay.

Sequence of purified pepsin (from porcine stomach mucosa) in simulated gastric fluid (P00791 60-385): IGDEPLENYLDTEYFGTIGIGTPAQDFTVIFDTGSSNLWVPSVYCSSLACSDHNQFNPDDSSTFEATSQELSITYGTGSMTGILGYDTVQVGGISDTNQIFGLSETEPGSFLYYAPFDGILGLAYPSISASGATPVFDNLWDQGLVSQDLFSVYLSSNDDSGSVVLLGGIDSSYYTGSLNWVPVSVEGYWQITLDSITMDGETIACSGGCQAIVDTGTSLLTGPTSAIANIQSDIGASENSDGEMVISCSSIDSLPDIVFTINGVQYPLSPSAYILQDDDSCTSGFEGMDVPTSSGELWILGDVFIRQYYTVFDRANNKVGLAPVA
Sequence of Glu(A14)Glu(B16)His(B25)Des(B30)-Insulin (ligand) (chain): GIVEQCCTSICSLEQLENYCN
Sequence of Glu(A14)Glu(B16)His(B25)Des(B30)-Insulin (ligand) (chain): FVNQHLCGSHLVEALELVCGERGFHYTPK
Sequence of Glu(A14)His(B16)His(B25)Des(B30)-Insulin (ligand) (chain): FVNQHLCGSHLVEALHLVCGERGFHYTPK
Sequence of Glu(A14)Val(B16)Ile(B25)Des(B30)-Insulin (ligand) (chain): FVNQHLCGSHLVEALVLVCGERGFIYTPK
Sequence of Glu(A14)Glu(B3)Ile(B16)Ile(B25)Des(B30)-Insulin (ligand) (chain): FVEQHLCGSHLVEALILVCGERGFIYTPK
Sequence of Glu(A14)Glu(B3)Val(B16)Des(B30)-Insulin (ligand) (chain): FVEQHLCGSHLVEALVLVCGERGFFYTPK
Sequence of Glu(A14)His(B16)Des(B30)-Insulin (ligand) (chain): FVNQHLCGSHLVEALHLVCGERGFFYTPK
Sequence of Glu(A14)Ile(B16)Val(B25)Des(B30)-Insulin (ligand) (chain): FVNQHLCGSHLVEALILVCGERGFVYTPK
Sequence of Glu(A14)Leu(B16)Ala(B25)Des(B30)-Insulin (ligand) (chain): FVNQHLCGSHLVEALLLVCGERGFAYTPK
Sequence of Glu(A14)Glu(B3)Val(B16)Val(B25)Des(B30)-Insulin (ligand) (chain): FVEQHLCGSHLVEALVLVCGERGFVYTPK
Sequence of Glu(A14)Val(B16)Val(B25)Des(B30)-Insulin (ligand) (chain): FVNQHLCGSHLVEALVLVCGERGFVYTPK
Sequence of Glu(A14)Ile(B16)Des(B30)-Insulin (ligand) (chain): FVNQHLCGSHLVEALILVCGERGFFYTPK
Sequence of Glu(A14)Gly(A21)Glu(B3)Val(B25)Des(B30)-Insulin (ligand) (chain): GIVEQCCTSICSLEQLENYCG
Sequence of Glu(A14)Gly(A21)Glu(B3)Val(B25)Des(B30)-Insulin (ligand) (chain): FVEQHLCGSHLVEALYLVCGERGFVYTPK
Sequence of Glu(A14)Gly(A21)Val(B16)Trp(B25)Des(B30)-Insulin (ligand) (chain): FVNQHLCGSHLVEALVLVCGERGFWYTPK
Sequence of Glu(A14)Gly(A21)Glu(B3)Ile(B16)Trp(B25)Des(B30)-Insulin (ligand) (chain): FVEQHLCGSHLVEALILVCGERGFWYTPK
Sequence of Glu(A14)Gly(A21)Glu(B3)Val(B16)Trp(B25)Des(B30)-Insulin (ligand) (chain): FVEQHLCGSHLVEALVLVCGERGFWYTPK
Sequence of Glu(A14)Gly(A21)Glu(B3)Ile(B16)Val(B25)Des(B30)-Insulin (ligand) (chain): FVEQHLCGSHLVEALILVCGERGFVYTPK
Sequence of Glu(A14)Gly(A21)Trp(B16)Des(B30)-Insulin (ligand) (chain): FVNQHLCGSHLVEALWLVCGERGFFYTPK
Sequence of Gly(A21)Trp(B16)His(B25)Des(B30)-Insulin (ligand) (chain): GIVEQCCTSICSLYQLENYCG
Sequence of Gly(A21)Trp(B16)His(B25)Des(B30)-Insulin (ligand) (chain): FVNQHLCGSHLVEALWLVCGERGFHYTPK
Sequence of Gly(A21)Trp(B16)Trp(B25)Des(B30)-Insulin (ligand) (chain): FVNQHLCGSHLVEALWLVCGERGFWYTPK
Sequence of Glu(A14)Val(B16)Des(B30)-Insulin (ligand) (chain): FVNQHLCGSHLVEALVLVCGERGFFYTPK
Sequence of Glu(A14)His(B16)Ala(B25)Des(B30)-Insulin (ligand) (chain): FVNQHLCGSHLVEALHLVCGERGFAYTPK
Sequence of Ala(B25)Des(B30)-Insulin (ligand) (chain): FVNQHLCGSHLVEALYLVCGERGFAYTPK
Sequence of Glu(A14)Gly(A21)Trp(B25)Des(B30)-Insulin (human) (chain, as listed by the source, chain 2 of 2): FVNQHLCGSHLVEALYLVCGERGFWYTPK

Ala(B25)Des(B30)-Insulin (ligand) gave an autophosphorylation activity relative to human insulin (relative to human insulin) in assay [1] of 0.17.
Turning to Cathepsin D (enzyme), the percent remaining insulin analog after 30 minutes with Cathepsin D in assay [2] was 52%; in assay [3], 0%; in [4], 20%; in assay [5] it was 0%; in [6] it was 62%; in [7] it was 59%. Besides, the percent remaining insulin analog after 30 minutes with Cathepsin D in assay [9] was determined as 43%. For the same substance, the percent remaining insulin after 30 minutes with Cathepsin D in assay [8] was 0%.
As for “Glu(A14)Glu(B3)Ile(B16)Ile(B25)Des(B30)-Insulin (ligand)”, the autophosphorylation activity relative to human insulin (relative to human insulin) in assay [1] was determined as 0.01. The Insulin-receptor binding affinity relative to human insulin (relative to human insulin) in assay [10] amounted to 0.
In assay [1], “Glu(A14)Glu(B3)Val(B16)Des(B30)-Insulin (ligand)” gave an autophosphorylation activity relative to human insulin (relative to human insulin) of 0.28. This substance registered an Insulin-receptor binding affinity relative to human insulin (relative to human insulin) in assay [11] of 0.4.
Regarding “Glu(A14)Glu(B3)Val(B16)Val(B25)Des(B30)-Insulin (ligand)”, the autophosphorylation activity relative to human insulin (relative to human insulin) in assay [1] was determined as 0.02. Also, in assay [10], the Insulin-receptor binding affinity relative to human insulin (relative to human insulin) was determined as 0.
Consider “Glu(A14)Glu(B16)His(B25)Des(B30)-Insulin (ligand)”, for which the autophosphorylation activity relative to human insulin (relative to human insulin) in assay [1] is 0.07. Besides, in assay [11], the Insulin-receptor binding affinity relative to human insulin (relative to human insulin) is 0.01.
The substance “Glu(A14)Gly(A21)Glu(B3)Ile(B16)Trp(B25)Des(B30)-Insulin (ligand)” returned an autophosphorylation activity relative to human insulin (relative to human insulin) in assay [1] of 0.13. The same substance had an Insulin-receptor binding affinity relative to human insulin (relative to human insulin) in assay [11] of 0.12.
Substance “Glu(A14)Gly(A21)Glu(B3)Ile(B16)Val(B25)Des(B30)-Insulin (ligand)” came in with an autophosphorylation activity relative to human insulin (relative to human insulin) in assay [1] of 0.02. Besides, the Insulin-receptor binding affinity relative to human insulin (relative to human insulin) in assay [11] came out at 0.01.
In the same order, the values of “Glu(A14)Gly(A21)Glu(B3)Val(B16)Trp(B25)Des(B30)-Insulin (ligand)” are 0.19 and 0.21.
In [1], “Glu(A14)Gly(A21)Glu(B3)Val(B16)Val(B25)Des(B30)-Insulin (ligand)” yielded an autophosphorylation activity relative to human insulin (relative to human insulin) of 0.01. The Insulin-receptor binding affinity relative to human insulin (relative to human insulin) in assay [11] stood at 0.01.
“Glu(A14)Gly(A21)Glu(B3)Val(B25)Des(B30)-Insulin (ligand)” returned an autophosphorylation activity relative to human insulin (relative to human insulin) in [1] of 0.03. In assay [11], this substance showed an Insulin-receptor binding affinity relative to human insulin (relative to human insulin) of 0.02.
The corresponding values for “Glu(A14)Gly(A21)Trp(B16)Des(B30)-Insulin (ligand)” are 0.38 and 0.63.
On to “Glu(A14)Gly(A21)Val(B16)Trp(B25)Des(B30)-Insulin (ligand)”, for which the autophosphorylation activity relative to human insulin (relative to human insulin) in assay [1] came out at 0.23. In addition, the Insulin-receptor binding affinity relative to human insulin (relative to human insulin) in assay [11] came to 0.17.
In turn, “Glu(A14)His(B16)Ala(B25)Des(B30)-Insulin (ligand)” returned an autophosphorylation activity relative to human insulin (relative to human insulin) in assay [1] of 0.11.
Consider “Glu(A14)His(B16)Des(B30)-Insulin (ligand)”, for which, in [1], the autophosphorylation activity relative to human insulin (relative to human insulin) is 0.29. Also, in [11], the Insulin-receptor binding affinity relative to human insulin (relative to human insulin) was determined as 0.36.
The corresponding values for “Glu(A14)His(B16)His(B25)Des(B30)-Insulin (ligand)” are 0.11 and 0.12.
Take “Glu(A14)His(B16)His(B25)[16-[4-[[5-[2-[2-[2-[2-[2-(carboxymethyloxy)ethoxy]ethylamino]-2-oxoethoxy]ethoxy]-ethylcarbamoyl]pyrimidin-2-yl]sulfamoyl]phenoxy]hexadecanoic acid]Lys(B29)Des(B30)-insulin (ligand)”: the Insulin receptor B binding affinity relative to human insulin in assay [12] is less than 20%.
Regarding “Glu(A14)Ile(B16)Des(B30)-Insulin (ligand)”, the autophosphorylation activity relative to human insulin (relative to human insulin) in assay [1] stood at 0.18. The substance further gave an Insulin-receptor binding affinity relative to human insulin (relative to human insulin) in assay [11] of 0.23.
Substance “Glu(A14)Ile(B16)Val(B25)Des(B30)-Insulin (ligand)” returned an autophosphorylation activity relative to human insulin (relative to human insulin) in assay [1] of 0.04. The substance also had an Insulin-receptor binding affinity relative to human insulin (relative to human insulin) in [10] of 0.
For the substance “Glu(A14)Leu(B16)Ala(B25)Des(B30)-Insulin (ligand)”, the autophosphorylation activity relative to human insulin (relative to human insulin) in [1] is 0.04. The substance also yielded an Insulin-receptor binding affinity relative to human insulin (relative to human insulin) in assay [11] of 0.01.
On to “Glu(A14)Val(B16)Des(B30)-Insulin (ligand)”, for which the autophosphorylation activity relative to human insulin (relative to human insulin) in assay [1] worked out at 0.32.
“Glu(A14)Val(B16)Ile(B25)Des(B30)-Insulin (ligand)” showed an autophosphorylation activity relative to human insulin (relative to human insulin) in assay [1] of 0.01. The substance also registered an Insulin-receptor binding affinity relative to human insulin (relative to human insulin) in assay [10] of 0.
The corresponding values for “Glu(A14)Val(B16)Val(B25)Des(B30)-Insulin (ligand)” are 0.03 and 0.
Turning to “Gly(A21)Trp(B16)Des(B30)-Insulin (ligand)”, the autophosphorylation activity relative to human insulin (relative to human insulin) in assay [1] was 0.4. In [11], this substance yielded an Insulin-receptor binding affinity relative to human insulin (relative to human insulin) of 0.57.
The corresponding values for “Gly(A21)Trp(B16)His(B25)Des(B30)-Insulin (ligand)” are 0.35 and 0.4.
The corresponding values for “Gly(A21)Trp(B16)Trp(B25)Des(B30)-Insulin (ligand)” are 0.38 and 0.43.
“Insulin analog 41 (Glu(A14)His(B16)His(B25)Des(B30)-insulin) (ligand)” came in with an Insulin receptor B binding affinity relative to human insulin in assay [12] of less than 20%.
In [1], Val(B16)Des(B30)-Insulin (ligand) registered an autophosphorylation activity relative to human insulin (relative to human insulin) of 0.32.
Turning to insulin degrading enzyme (IDE), the percent remaining insulin analog after 30 minutes with insulin degrading enzyme, IDE amounted to 2% in assay [2]; 81% in [3]; 80% in assay [13]; 88% in assay [14]; 77% in [4]; 98% in assay [5]. For the same substance, the percent remaining insulin analog after 30 minutes with insulin degrading enzyme, IDE in assay [6] is 86%; in [7], 86%; in assay [15], 41%; in [16], 12%; in [9], 11%. In assay [8], this substance gave a percent remaining insulin after 30 minutes with insulin degrading enzyme, IDE of 38%.
Consider “purified pepsin (from porcine stomach mucosa) in simulated gastric fluid (from UniProt P00791) (enzyme)”, for which the percent remaining insulin analog after 30 minutes in gastric fluid in assay [2] was 30%; in assay [3], 0%; in [4] it was 52%; in assay [5], 0%; in [6] it was 36%; in assay [7], 52%. The percent remaining insulin analog after 30 minutes in gastric fluid in [9] stood at 44%. For the same substance, the percent remaining insulin after 30 minutes in gastric fluid in [8] was 0%.
Consider α-Chymotrypsin (enzyme), for which the percent remaining insulin analog after 120 minutes with α-Chymotrypsin in [2] was determined as 58%; in assay [3], 35%; in assay [4], 99%; in assay [5], 30%; in assay [6] it was 34%; in assay [7] it was 40%. Also, the percent remaining insulin analog after 120 minutes with α-Chymotrypsin in [9] was 31%. In assay [8], the percent remaining insulin after 120 minutes with α-Chymotrypsin is 5%.
